Measurements reported in paper PMC4212957, “The serodominant secreted effector protein of Salmonella, SseB, is a strong CD4 antigen containing an immunodominant epitope presented by diverse HLA class II alleles” (Immunology, 2014).
Residues, ends and D or L forms follow the SMILES beside them.

Tests used:
HLA-DRB1*01:01 = HLA-DRB1*01:01 (Homo sapiens, UniProt P01903+P01911, A100R/D57E/F55L/F60I/F76Y/I96L/L162R/M171V/P40L/Q125E/R42F/V115G/Y59C); conditions: competitive ELISA; ratio IC50 of peptide / IC50 of reference peptide HA 306–318; lower = higher affinity; ratio 20 or less high, 20–100 moderate; three independent experiments
HLA-DRB1*15:01 = target: T1, HLA-DRB1*15:01 (Homo sapiens, UniProt P01903+P01911); assay: Peptide/HLA-DR binding, competitive ELISA; conditions: for Relative binding affinity of peptide to HLA-DR molecules DRB1*1501: ratio IC50 of peptide / IC50 of reference peptide A3 152–166, lower = higher affinity, ratio 20 or less high, 20–100 moderate, three independent experiments
T1 construct: HLA-DR heterodimers were purified from homozygous Epstein–Barr virus B-lymphoblastoid cell lines; host or cells: homozygous EBV B-lymphoblastoid cell line
Procedure: (§1) HLA-DR heterodimers were purified from homozygous Epstein–Barr virus B-lymphoblastoid cell lines (HPA Culture Collections, Salisbury, UK) by affinity chromatography with the monomorphic HLA-DRα monoclonal antibody, L243.[29],[30] Binding of the SseB peptide panel to the HLA-DR molecules HLA-DRB1*01:01, 03:01, 04:01, 07:01, 09:01, 11:01, 12:02, 15:01, 15:02 was assessed by competitive ELISA, as previously described, using an automated workstation.[29],[30] We evaluated the peptide concentration able to prevent binding of 50% of the labelled peptide (IC50). Data were expressed as relative affinity: ratio of the IC50 of the peptide to the IC50 of the reference peptide, which is a high binder to the HLA class II molecule. Unlabelled forms of the biotinylated peptides were used as reference peptides.

HLA-DRB1*09:01 = target: T2, HLA-DRB1*09:01 (Homo sapiens, UniProt P01903+P01911, A100R/A103E/D57H/D86V/F55Y/F60I/F76Y/I96F/K127E/L162R/M171V/P40D/Q125H/Q99R/R33Q/R42F/S133A/S66N/T210M/V115G/W38K/Y107V/Y59G/Y89S); assay: Peptide/HLA-DR binding, competitive ELISA; conditions: for Relative binding affinity of peptide to HLA-DR molecules DRB1*0901: ratio IC50 of peptide / IC50 of reference peptide CTP 427–441, lower = higher affinity, ratio 20 or less high, 20–100 moderate, three independent experiments
T2 construct: HLA-DR heterodimers were purified from homozygous Epstein–Barr virus B-lymphoblastoid cell lines; host or cells: homozygous EBV B-lymphoblastoid cell line
Procedure: as §1

HLA-DRB1*12:02 = HLA-DRB1*12:02 (Homo sapiens, UniProt P01903+P01911, A100R/A169T/D57E/D86V/F55L/H45Y/I96F/K41T/L162R/M171V/P40S/Q125H/Q178H/Q39Y/Q99D/R42G/S66L/T262R/V114A/V67L/W38E/Y59H/Y61H/Y89S); assay: Peptide/HLA-DR binding, competitive ELISA; conditions: for Relative binding affinity of peptide to HLA-DR molecules DRB1*1202: ratio IC50 of peptide / IC50 of reference peptide TFR 141–155, lower = higher affinity, ratio 20 or less high, 20–100 moderate, three independent experiments
Procedure: as §1

HLA-DRB1*03:01 = target: T3, HLA-DRB1*03:01 (Homo sapiens, UniProt P01903+P01911, A100K/A102G/A103R/A169T/F55Y/I96L/K41T/L162R/M171V/P40S/Q125H/Q178H/Q39Y/R42S/S66N/T106N/T262R/W38E/Y61H); assay: Peptide/HLA-DR binding, competitive ELISA; conditions: ratio IC50 of peptide / IC50 of reference peptide MT2-16, lower = higher affinity, ratio 20 or less high, 20–100 moderate, three independent experiments
T3 construct: HLA-DR heterodimers were purified from homozygous Epstein–Barr virus B-lymphoblastoid cell lines; host or cells: homozygous EBV B-lymphoblastoid cell line
Procedure: as §1

HLA-DRB1*15:02 = target: T4, HLA-DRB1*15:02 (Homo sapiens, UniProt P01903+P01911, V115G); assay: Peptide/HLA-DR binding, competitive ELISA; conditions: for Relative binding affinity of peptide to HLA-DR molecules DRB1*1502: ratio IC50 of peptide / IC50 of reference peptide TFR 607–620, lower = higher affinity, ratio 20 or less high, 20–100 moderate, three independent experiments
T4 construct: HLA-DR heterodimers were purified from homozygous Epstein–Barr virus B-lymphoblastoid cell lines; host or cells: homozygous EBV B-lymphoblastoid cell line
Procedure: as §1

HLA-DRB1*04:01 = HLA-DRB1*04:01 (Homo sapiens, UniProt P01903+P01911, A100K/A169T/F76Y/I96L/K127E/L162R/M171V/N62H/P40V/Q125Y/R42H/S133A/S149N/S66Y/V115G/V209L/W38E); conditions: competitive ELISA; ratio IC50 of peptide / IC50 of reference peptide HA 306–318; lower = higher affinity; ratio 20 or less high, 20–100 moderate; three independent experiments
HLA-DRB1*07:01 = HLA-DRB1*07:01 (Homo sapiens, UniProt P01903+P01911, A100R/A102G/A103Q/D57E/D86V/E43K/F76Y/K127E/L162R/M171V/P40G/Q125H/Q99D/R33Q/R42Y/R54Q/S133A/S66F/T210M/V115G/Y107V/Y59L/Y89S); conditions: competitive ELISA; ratio IC50 of peptide / IC50 of reference peptide HA 306–318; lower = higher affinity; ratio 20 or less high, 20–100 moderate; three independent experiments
HLA-DRB1*11:01 = HLA-DRB1*11:01 (Homo sapiens, UniProt P01903+P01911, A100R/A169T/A87E/I96F/K41T/L162R/M171V/P40S/Q125H/Q178H/Q39Y/Q99D/R42S/S66Y/T262R/V115G/W38E); conditions: competitive ELISA; ratio IC50 of peptide / IC50 of reference peptide HA 306–318; lower = higher affinity; ratio 20 or less high, 20–100 moderate; three independent experiments

Row | Molecule | Relative binding affinity of peptide to HLA-DR molecules DRB1*0101 (HLA-DRB1*01:01) | Relative binding affinity of peptide to HLA-DR molecules DRB1*1501 (HLA-DRB1*15:01) | Relative binding affinity of peptide to HLA-DR molecules DRB1*0901 (HLA-DRB1*09:01) | Relative binding affinity of peptide to HLA-DR molecules DRB1*1202 (HLA-DRB1*12:02) | Relative binding affinity of peptide to HLA-DR molecules DRB1*0301 (HLA-DRB1*03:01) | Relative binding affinity of peptide to HLA-DR molecules DRB1*1502 (HLA-DRB1*15:02) | Relative binding affinity of peptide to HLA-DR molecules DRB1*0401 (HLA-DRB1*04:01) | Relative binding affinity of peptide to HLA-DR molecules DRB1*0701 (HLA-DRB1*07:01) | Relative binding affinity of peptide to HLA-DR molecules DRB1*1101 (HLA-DRB1*11:01) | IC50 (HLA-DRB1*15:01; DRB1*15:01, unlabelled form of the biotinylated peptide, read-out: IC50 of reference peptide) | IC50 (HLA-DRB1*09:01; DRB1*0901, unlabelled form of the biotinylated peptide, read-out: IC50 of reference peptide) | IC50 (HLA-DRB1*12:02; DRB1*1202, unlabelled form of the biotinylated peptide, read-out: IC50 of reference peptide) | IC50 (HLA-DRB1*15:02; DRB1*15:02, unlabelled form of the biotinylated peptide, read-out: IC50 of reference peptide)
1 | 3: SseB overlapping library peptide, residues 21–40 (GVSNADTGSQDDLSQQNPFA) [Peptide 3] | > 4149 | > 270 | > 689 | > 136 | > 119 | > 3 333 | > 145 | > 336 | – | – | – | – | –
2 | 4: SseB overlapping library peptide, residues 31–50 (DDLSQQNPFAEGYGVLLILL) [Peptide 4] | 22 | 10 | 28 | > 136 | > 119 | 55 | > 145 | 6 | – | – | – | – | –
3 | 5: SseB overlapping library peptide, residues 41–60 (EGYGVLLILLMVIQAIANNK) [Peptide 5] | > 4149 | > 270 | > 689 | > 136 | > 119 | > 3 333 | > 145 | > 336 | > 278 | – | – | – | –
4 | 6: SseB overlapping library peptide, residues 51–70 (MVIQAIANNKFIEVQKNAER) [Peptide 6] | 235 | 1 | > 689 | 2 | > 119 | 577 | 6 | 2 | 8 | – | – | – | –
5 | 7: SseB overlapping library peptide, residues 61–80 (FIEVQKNAERARNTQEKSNE) [Peptide 7] | – | 211 | > 689 | > 136 | 89 | > 3 333 | 109 | > 336 | > 278 | – | – | – | –
6 | 8: SseB overlapping library peptide, residues 71–90 (ARNTQEKSNEMDEVIAKAAK) [Peptide 8] | > 4149 | > 270 | > 689 | > 136 | > 119 | > 3 333 | > 145 | > 336 | > 278 | – | – | – | –
7 | 9: SseB overlapping library peptide, residues 81–100 (MDEVIAKAAKGDAKTKEEVP) [Peptide 9] | 1508 | 200 | 626 | > 136 | 41 | > 3 333 | > 145 | > 336 | 8 | – | – | – | –
8 | CC(C)C[C@H](NC(=O)[C@H](Cc1ccc(O)cc1)NC(=O)[C@H](C)NC(=O)[C@H](CCCNC(=N)N)NC(=O)[C@H](CC(C)C)NC(=O)[C@H](CCC(N)=O)NC(=O)[C@H](CCC(=O)O)NC(=O)[C@H](C)NC(=O)[C@@H](N)CCC(=O)O)C(=O)N[C@@H](CC(=O)O)C(=O)NCC(=O)N[C@H](C(=O)NCC(=O)N[C@H](C(=O)N[C@@H](CCC(=O)O)C(=O)O)C(C)C)[C@@H](C)O [A3 152–166, reference compound] | – | – | – | – | – | – | – | – | – | 37 nM | – | – | –
9 | CC[C@H](C)[C@H](NC(=O)[C@H](CCCNC(=N)N)NC(=O)[C@H](CO)NC(=O)[C@@H](NC(=O)[C@H](C)NC(=O)[C@@H]1CCCN1C(=O)[C@H](CC(N)=O)NC(=O)[C@H](Cc1ccc(O)cc1)NC(=O)[C@H](Cc1ccccc1)NC(=O)CNC(=O)[C@H](Cc1c[nH]cn1)NC(=O)[C@@H](N)C(C)C)C(C)C)C(=O)N[C@H](C(=O)N[C@@H](CCC(=O)O)C(=O)N[C@@H](C)C(=O)O)C(C)C [CTP 427–441, reference compound] (H-VHGFYNPAVSRIVEA-OH) | – | – | – | – | – | – | – | – | – | – | 15 nM | – | –
10 | CC[C@H](C)[C@H](NC(=O)[C@@H](NC(=O)CNC(=O)[C@@H](N)[C@@H](C)O)[C@@H](C)O)C(=O)N[C@@H](CCCCN)C(=O)N[C@@H](CC(C)C)C(=O)N[C@@H](CC(C)C)C(=O)N[C@@H](CC(N)=O)C(=O)N[C@@H](CCC(=O)O)C(=O)N[C@@H](CC(N)=O)C(=O)N[C@@H](CO)C(=O)N[C@@H](Cc1ccc(O)cc1)C(=O)N[C@H](C(=O)N1CCC[C@H]1C(=O)N[C@@H](CCCNC(=N)N)C(=O)O)C(C)C [TFR 141–155, reference compound] (H-TGTIKLLNENSYVPR-OH) | – | – | – | – | – | – | – | – | – | – | – | 73 nM | –
11 | CC(C)C[C@H](NC(=O)[C@H](CC(C)C)NC(=O)[C@H](CCC(N)=O)NC(=O)[C@H](CO)NC(=O)[C@H](CC(N)=O)NC(=O)[C@H](Cc1ccc(O)cc1)NC(=O)[C@H](CCCNC(=N)N)NC(=O)[C@H](CCC(=O)O)NC(=O)[C@H](Cc1ccc(O)cc1)NC(=O)[C@H](CC(=O)O)NC(=O)[C@H](CC(C)C)NC(=O)[C@H](CC(N)=O)NC(=O)[C@@H](N)CC(C)C)C(=O)N[C@@H](CO)C(=O)O [TFR 607–620, reference compound] (H-LNLDYERYNSQLLS-OH) | – | – | – | – | – | – | – | – | – | – | – | – | 3 nM
